Laboratory results published in publication PMC6886522.

Legend:
[1] = system: O=C(O)c1ccccc1N[C@@H]1O[C@H](COP(=O)(O)O)[C@@H](O)[C@H]1O; assay: purified protein
[2] = system: NC(=O)c1ncn([C@@H]2O[C@H](COP(=O)(O)O)[C@@H](O)[C@H]2O)c1N=CN[C@@H]1O[C@H](COP(=O)(O)O)[C@@H](O)[C@H]1O; assay: purified protein
[3] = substrate: O=C(O)c1ccccc1N[C@@H]1O[C@H](COP(=O)(O)O)[C@@H](O)[C@H]1O; assay: PRA isomerase steady-state kinetics; assay type: biochemical, Jonesia denitrificans
[4] = substrate: O=C(O)c1ccccc1N[C@@H]1O[C@H](COP(=O)(O)O)[C@@H](O)[C@H]1O; assay: PRA isomerase steady-state kinetics; assay type: biochemical, Streptomyces globisporus
[5] = substrate: NC(=O)c1ncn([C@@H]2O[C@H](COP(=O)(O)O)[C@@H](O)[C@H]2O)c1N=CN[C@@H]1O[C@H](COP(=O)(O)O)[C@@H](O)[C@H]1O; assay: ProFAR isomerase steady-state kinetics; assay type: biochemical, Streptomyces globisporus
[6] = substrate: NC(=O)c1ncn([C@@H]2O[C@H](COP(=O)(O)O)[C@@H](O)[C@H]2O)c1N=CN[C@@H]1O[C@H](COP(=O)(O)O)[C@@H](O)[C@H]1O; assay: ProFAR isomerase steady-state kinetics; assay type: biochemical, Mycolicibacterium smegmatis; conditions: pH 7.5
[7] = substrate: O=C(O)c1ccccc1N[C@@H]1O[C@H](COP(=O)(O)O)[C@@H](O)[C@H]1O; assay: PRA isomerase steady-state kinetics; assay type: biochemical, Mycolicibacterium smegmatis; conditions: pH 7.5
[8] = substrate: NC(=O)c1ncn([C@@H]2O[C@H](COP(=O)(O)O)[C@@H](O)[C@H]2O)c1N=CN[C@@H]1O[C@H](COP(=O)(O)O)[C@@H](O)[C@H]1O; assay: ProFAR isomerase steady-state kinetics; assay type: biochemical, Streptomyces sviceus
[9] = substrate: O=C(O)c1ccccc1N[C@@H]1O[C@H](COP(=O)(O)O)[C@@H](O)[C@H]1O; assay: PRA isomerase steady-state kinetics; assay type: biochemical, Streptomyces sviceus
[10] = substrate: O=C(O)c1ccccc1N[C@@H]1O[C@H](COP(=O)(O)O)[C@@H](O)[C@H]1O; assay: PRA isomerase steady-state kinetics; assay type: biochemical, Streptomyces ipomoeae
[11] = substrate: NC(=O)c1ncn([C@@H]2O[C@H](COP(=O)(O)O)[C@@H](O)[C@H]2O)c1N=CN[C@@H]1O[C@H](COP(=O)(O)O)[C@@H](O)[C@H]1O; assay: ProFAR isomerase steady-state kinetics; assay type: biochemical, Streptomyces ipomoeae
[12] = substrate: NC(=O)c1ncn([C@@H]2O[C@H](COP(=O)(O)O)[C@@H](O)[C@H]2O)c1N=CN[C@@H]1O[C@H](COP(=O)(O)O)[C@@H](O)[C@H]1O; assay: ProFAR isomerase steady-state kinetics; assay type: biochemical, Streptomyces sp. C
[13] = substrate: O=C(O)c1ccccc1N[C@@H]1O[C@H](COP(=O)(O)O)[C@@H](O)[C@H]1O; assay: PRA isomerase steady-state kinetics; assay type: biochemical, Streptomyces sp. C

Work on PriB_SMg1 (Streptomyces sp.) yielded a Km [1] of 129.6 ± 34 µM, a kcat [1] of 0.29 ± 0.04 s⁻¹ and a kcat/Km [1] of 2200 M⁻¹ s⁻¹. For the same molecule, the Km [2] was 13.2 ± 3.4 µM, the kcat [2] was 0.92 ± 0.19 s⁻¹ and the kcat/Km [2] was 69000 M⁻¹ s⁻¹.

B1: TrpF-3_Jden (Jonesia denitrificans DSM 20603) (protein)
chain: MYIKVCGLTDPHAIDAAQAAHVDAIGFVHAPTSPRHLTPPHISTLTATVDCTIDTVLVVATTPIADALALAESTGVSVLQLHGQYSDDDVAYAAARFPRVWRATSLSASPNLTVGAYGEELLLLDAPQAGSGHTWDFAALAHRRPTGRWLLAGGLTPDNVADAITTTSPWGVDVSSGVESAPGVKDPAKIAAFVQAARGVSCPR
B1 showed a Km [3] of 16.8 ± 3.3 µM, a kcat [3] of 27 ± 1.6 s⁻¹ and a kcat/Km [3] of 1.6e+06 M⁻¹ s⁻¹.

B2: PriA_Sglo (Streptomyces globisporus) (protein)
chain: MPKLELLPAVDVRDGQAVRLVHGESGSETSYGSPLEAALAWQSAGAEWLHLVDLDAAFGTGDNRALIAEVAGAMDIKVELSGGIRDDASLEAALATGCRRVNLGTAALETPEWVAKVIAEHGDKIAVGLDVRGTTLRGRGWTRDGGDLYETLARLDAEGCARYVVTDIAKDGTLEGPNLGLLRDVCAVTDRPVVASGGVSSLDDLRAISLLVPEGVEGAIVGKALYAKAFTLEEALKAVAA
In the case of B2, the Km [4] is reported as 11 ± 1.0 µM, the kcat [4] is reported as 3.8 ± 0.2 s⁻¹ and the kcat/Km [4] is reported as 340000 M⁻¹ s⁻¹. The Km [5] was 4.2 ± 0.8 µM, the kcat [5] was 0.74 ± 0.03 s⁻¹ and the kcat/Km [5] was 180000 M⁻¹ s⁻¹.

B3: PriA_Msme (Mycolicibacterium smegmatis MC2 155) (protein)
chain: MATGATEAAGAGKRGLILLPAVDVVNGQAVRLVQGKAGSETDYGSAIEAAEAWQRDGAEWIHLVDLDAAFGRGSNRELLAEVVGKLDVAVELSGGIRDDESLRAALDTGCARVNIGTAALENPQWCARAIAEHGDRVAVGLDAQTDGAGGFRLRGRGWETDGGDLWEVLDRLDSEGCSRYVVTDVSKDGTLTGPNLDLLAAVAGRTDAPVIASGGVSSLDDLRAIATLTGVGVEGAIVGKALYAGRFTLPQALSAVSG
With B3 the Km [6] was 2.6 ± 0.5 µM, the kcat [6] was 0.85 ± 0.04 s⁻¹ and the kcat/Km [6] was 330000 M⁻¹ s⁻¹. For the same molecule, the Km [7] was 7.9 ± 2.4 µM, the kcat [7] was 3.1 ± 0.43 s⁻¹ and the kcat/Km [7] was 390000 M⁻¹ s⁻¹.

B4: PriB_Ssvi (Streptomyces sviceus ATCC 29083) (protein)
chain: MPSKLSRLELLPAVDVRDGQAVRLVHGESGTETSYGSPLEAALSWQRAGAEWLHLVDLDAAFGTGDNRELVRQVTEAMDIKVELSGGIRDDASLAAALATGCTRVNLGTAALESPEWVAKVIAEHGDRIAVGLDVRGTTLKGRGWTSEGGDLYEALERLDKEGCARYVVTDIAKDGTLQGPNLELLRNVCAATDRPVVASGGVSSLDDLRAIAELVPLGVEGSIVGKALYAKAFTLEEALEAVAQ
B4 gave a Km [8] of 3.9 ± 0.89 µM, a kcat [8] of 0.69 ± 0.04 s⁻¹ and a kcat/Km [8] of 180000 M⁻¹ s⁻¹. The Km [9] was 24.5 ± 4.0 µM, the kcat [9] was 1.6 ± 0.29 s⁻¹ and the kcat/Km [9] was 67000 M⁻¹ s⁻¹.

B5: TrpF-3_Sipo (Streptomyces ipomoeae 91-03) (protein)
chain: MSVSNSNDSLFIKICGLRTERDVDTAVEAGADAVGFVFSASPRQIDADTAARLCDRVPEHVLTVGVFRDEPLRDVRSFATDSGIRAVQLHGPEDRAYYDDLAKGDWTLIRAAAFGDTVPRCGEFGEDMLLIDAPVPGSGIAWDWSSKPLAGSGERWILAGGLSPENVRDAVAATQPWGVDVSSGVELSRGVKDPALITEFVKAVRGGC
In the case of B5, the Km [10] is reported as 23.0 ± 1.3 µM, the kcat [10] is reported as 4.3 ± 0.35 s⁻¹ and the kcat/Km [10] is reported as 190000 M⁻¹ s⁻¹.

B6: PriB_Sipo (Streptomyces ipomoeae 91-03) (protein)
chain: MAKLELLPAVDVRDGQAVRLVHGESGTETSYGSPLEAALAWQRAGAEWLHLVDLDAAFGTGDNRDLVAEVTRAMDIKVELSGGIRDDASLAKALATGCTRVNLGTAALETPEWVAKVIAEHGDKIAVGLDVKGTTLRGRGWTRDGGDLYETLERLDKEGCARYVVTDIAKDGTLQGPNLELLRNVCAATDRPVVASGGVSSLDDLRAIAELVPLGVEGAIVGKALYAKAFTLEEALEATS
Molecule B6 has a Km [10] of 60.8 ± 1.1 µM, a kcat [10] of 8.25 ± 0.4 s⁻¹ and a kcat/Km [10] of 140000 M⁻¹ s⁻¹. For the same molecule, the Km [11] was 3.8 ± 0.2 µM, the kcat [11] was 0.82 ± 0.02 s⁻¹ and the kcat/Km [11] was 210000 M⁻¹ s⁻¹.

B7: TrpF-3_Ssvi (Streptomyces sviceus ATCC 29083) (protein)
chain: MTLFVKICGLRTEQDVDTAVEAGADAIGFVFSDSPRRIDPAAAARLAARIPESVLTVGVFRREPLEYVRSVAAESGIGAVQLHGPEDRAYYDELSGGGWTLIRAAAFGDRVPRCGELGEDMLLLDAPVPGSGIAWDWSRKQVAGAGEKWLLAGGLTPENVREAVDVTRPWGVDVSSGVEASRGVKNPALITAFVEAARAGAVTSG
In the case of B7, the Km [9] is reported as 9.4 ± 0.47 µM, the kcat [9] is reported as 0.82 ± 0.08 s⁻¹ and the kcat/Km [9] is reported as 88000 M⁻¹ s⁻¹.

B8: PriB_SspC (Streptomyces sp. C) (protein)
chain: MPNTLELLPAVDVRDGQAVRLVHGVSGSETSYGSPLEAALAWQASGAEWLHLVDLDAAFGTGDNRALVADITRAMDIKVELSGGIRDDATLAAALATGCTRVNLGTAALETPEWAAKAIAEHGDRIAIGLDVRGTTLKGRGWTSEGGDLYETLARLDSEGCARYVVTDIGKDGTLTGPNLELLKNVCAATDRPVVASGGVSSLDDLRALSELVPLGVEGAIVGKALYAKAFTLEEALEAVRA
In the case of B8, the Km [12] is reported as 11.4 ± 3.4 µM, the kcat [12] is reported as 2.53 ± 0.74 s⁻¹ and the kcat/Km [12] is reported as 220000 M⁻¹ s⁻¹. The Km [13] was 149.9 ± 29 µM, the kcat [13] was 1.4 ± 0.12 s⁻¹ and the kcat/Km [13] was 9000 M⁻¹ s⁻¹.
